Laboratory results published in US7183387.
Where two headings read alike, the source gives them in different places. One block for each substance: values may come before it.

Experiments:
[1] = target: human C1q (Quidel) (human) (UniProt P02745); test: C1q ELISA
[2] = target: human C1q (Quidel) (human) (UniProt P02745); test: cell-based or functional assay
[3] = target: CD20 antigen on WIL2-S cells (UniProt P11836); test: flow cytometry, WIL2-S cells
[4] = target: human C1q (Quidel) (human) (UniProt P02745); test: C1q ELISA; remark: listed apart in the source
[5] = target: human C1q (Quidel) (human) (UniProt P02745); test: C1q ELISA; remark: listed apart in the source
[6] = target: human FcγRIIA-R131 α subunit extracellular domain-6His-GST fusion (human) (UniProt P12318); test: ELISA, IgG:IgE hexamers on receptor-GST
[7] = target: human FcγRIIB α subunit extracellular domain-6His-GST fusion (human) (UniProt P31994); test: ELISA, IgG:IgE hexamers on receptor-GST
[8] = target: human FcγRIIIA-F158 α subunit extracellular domain-6His-GST fusion (human) (UniProt P08637); test: ELISA, IgG:IgE hexamers on receptor-GST
[9] = target: human FcγRIA α subunit extracellular domain-His6-GST fusion (human) (UniProt P12314); test: FcγRI ELISA and THP-1 cells, averaged
[10] = target: human FcγRIIA-Arg131 α subunit extracellular domain-His6-GST fusion (human) (UniProt P12318); test: hexamer ELISA
[11] = target: human neonatal Fc receptor (FcRn), biotinylated (human) (UniProt P55899); test: FcRn ELISA, pH 6.0
[12] = target: human FcγRIIB α subunit extracellular domain-His6-GST fusion (human) (UniProt P31994); test: immune complex ELISA, E27 background
[13] = target: human FcγRIIA-R131 α subunit extracellular domain-His6-GST fusion (human) (UniProt P12318); test: ELISA, IgG:IgE hexamer on coated FcγRIIA-R131-GST; value carried over from Table 6, 7 or 8
[14] = target: human FcγRIIA-R131 α subunit extracellular domain-His6-GST fusion (human) (UniProt P12318); test: ELISA, IgG complex, receptor coated
[15] = target: human FcγRIIIA-Phe158 on cells (CHO cells stably transfected with α- and γ-chains; NK cells of Phe158/Phe158 donors) (human) (UniProt P08637); test: cell-based or functional assay
human FcγRIIIA-Phe158 on cells (CHO cells stably transfected with α- and γ-chains; NK cells of Phe158/Phe158 donors) (human), sequence (P08637 17-254, chain 1 of 2): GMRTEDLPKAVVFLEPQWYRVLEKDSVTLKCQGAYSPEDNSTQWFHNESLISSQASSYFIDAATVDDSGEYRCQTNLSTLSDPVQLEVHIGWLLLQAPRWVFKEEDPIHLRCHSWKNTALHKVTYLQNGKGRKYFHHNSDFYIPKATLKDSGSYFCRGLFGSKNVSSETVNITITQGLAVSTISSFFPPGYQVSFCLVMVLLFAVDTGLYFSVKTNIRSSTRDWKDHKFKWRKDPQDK
human FcγRIIIA-Phe158 on cells (CHO cells stably transfected with α- and γ-chains; NK cells of Phe158/Phe158 donors) (human), sequence (P30273 19-86, chain 2 of 2, further chain): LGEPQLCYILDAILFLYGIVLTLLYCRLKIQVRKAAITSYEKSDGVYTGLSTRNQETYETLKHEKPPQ

CD20 antigen on WIL2-S cells, sequence (P11836 whole entry): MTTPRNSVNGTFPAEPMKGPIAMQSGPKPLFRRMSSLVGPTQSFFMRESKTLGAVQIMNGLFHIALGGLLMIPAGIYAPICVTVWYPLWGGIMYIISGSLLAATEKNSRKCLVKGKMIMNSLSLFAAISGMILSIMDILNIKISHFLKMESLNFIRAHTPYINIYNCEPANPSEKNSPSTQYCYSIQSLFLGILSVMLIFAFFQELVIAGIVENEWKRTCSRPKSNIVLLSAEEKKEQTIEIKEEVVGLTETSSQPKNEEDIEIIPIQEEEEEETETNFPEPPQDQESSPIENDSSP
human C1q (Quidel) (human), sequence (P02745 23-245, chain 1 of 3): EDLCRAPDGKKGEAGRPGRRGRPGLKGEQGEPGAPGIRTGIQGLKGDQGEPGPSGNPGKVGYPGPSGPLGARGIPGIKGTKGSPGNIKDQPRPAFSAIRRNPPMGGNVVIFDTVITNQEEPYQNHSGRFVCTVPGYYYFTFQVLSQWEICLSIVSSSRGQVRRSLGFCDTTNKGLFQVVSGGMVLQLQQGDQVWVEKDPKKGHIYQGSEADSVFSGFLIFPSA
human C1q (Quidel) (human), sequence (P02746 28-253, chain 2 of 3, further chain): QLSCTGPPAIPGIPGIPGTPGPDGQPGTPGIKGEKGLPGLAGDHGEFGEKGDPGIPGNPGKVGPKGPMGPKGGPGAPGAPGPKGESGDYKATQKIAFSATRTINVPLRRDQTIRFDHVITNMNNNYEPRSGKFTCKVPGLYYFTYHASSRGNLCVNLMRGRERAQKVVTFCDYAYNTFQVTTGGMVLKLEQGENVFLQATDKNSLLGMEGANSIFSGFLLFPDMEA
human C1q (Quidel) (human), sequence (P02747 29-245, chain 3 of 3, further chain): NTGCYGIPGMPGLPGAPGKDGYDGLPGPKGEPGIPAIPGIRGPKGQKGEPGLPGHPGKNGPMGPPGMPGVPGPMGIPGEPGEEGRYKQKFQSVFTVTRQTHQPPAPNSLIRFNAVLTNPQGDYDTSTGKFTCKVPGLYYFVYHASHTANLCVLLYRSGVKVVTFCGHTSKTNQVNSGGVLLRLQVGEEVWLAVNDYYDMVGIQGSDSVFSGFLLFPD
human FcγRIIB α subunit extracellular domain-6His-GST fusion (human), sequence (P31994 other isoform, or with tags, fused parts or gaps, form in doubt): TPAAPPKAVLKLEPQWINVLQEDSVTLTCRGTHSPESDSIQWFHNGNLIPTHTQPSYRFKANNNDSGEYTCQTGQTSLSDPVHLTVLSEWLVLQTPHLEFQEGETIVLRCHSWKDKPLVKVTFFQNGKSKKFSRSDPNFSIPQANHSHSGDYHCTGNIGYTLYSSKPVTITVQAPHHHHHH
human FcγRIIA-R131 α subunit extracellular domain-His6-GST fusion (human), sequence (P12318 other isoform, or with tags, fused parts or gaps, form in doubt): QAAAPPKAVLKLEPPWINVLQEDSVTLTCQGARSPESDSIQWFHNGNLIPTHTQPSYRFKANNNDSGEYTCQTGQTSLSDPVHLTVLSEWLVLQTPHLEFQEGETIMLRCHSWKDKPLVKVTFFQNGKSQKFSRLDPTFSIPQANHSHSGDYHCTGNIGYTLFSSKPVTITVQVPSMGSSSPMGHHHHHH
human FcγRIIA-R131 α subunit extracellular domain-6His-GST fusion (human), sequence (P12318 other isoform, or with tags, fused parts or gaps, form in doubt): as above
human FcγRIIB α subunit extracellular domain-His6-GST fusion (human), sequence (P31994 other isoform, or with tags, fused parts or gaps): as the sequence (P31994 other isoform, or with tags, fused parts or gaps, form in doubt) above
human FcγRIIA-Arg131 α subunit extracellular domain-His6-GST fusion (human), sequence (P12318 other isoform, or with tags, fused parts or gaps): as the sequence (P12318 other isoform, or with tags, fused parts or gaps, form in doubt) above
human FcγRIA α subunit extracellular domain-His6-GST fusion (human), sequence (P12314 other isoform, or with tags, fused parts or gaps): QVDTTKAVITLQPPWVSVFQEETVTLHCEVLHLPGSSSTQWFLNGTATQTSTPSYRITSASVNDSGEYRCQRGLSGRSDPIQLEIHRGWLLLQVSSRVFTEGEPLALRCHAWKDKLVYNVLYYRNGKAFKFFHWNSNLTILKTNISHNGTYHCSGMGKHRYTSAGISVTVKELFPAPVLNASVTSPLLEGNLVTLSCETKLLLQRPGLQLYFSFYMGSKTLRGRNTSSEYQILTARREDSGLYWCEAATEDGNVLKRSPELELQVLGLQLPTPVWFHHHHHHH

increase in binding against wild type [1]: 50%
Substance: C2B8 (human IgG1 constant region) A327 changed to glycine (antibody)

decrease in binding against wild type [1]: 30%
CDC (% of wild type) [2]: 108
percentage of the wild type [3]: 89%
Substance: C2B8 E318A (antibody)

increase in binding against wild type [1]: 30%
Substance: C2B8 E333A (antibody)

fold increase in binding against wild type [1]: > 2 fold
fold increase in binding against wild type [4]: 2 fold
Substance: C2B8 E333S (antibody)

CDC (% of wild type) [2]: 108
percentage of the wild type [3]: 102%
Substance: C2B8 K320A (antibody)

increase in binding against wild type [1]: 30%
Substance: C2B8 K326A (antibody)

fold better binding than wild type [1]: > 3 fold
CDC [2]: 2 fold
Substance: C2B8 K326A-E333A (antibody)

fold increase in binding against wild type [1]: > 2 fold
Substance: C2B8 K326D (antibody)

fold increase in binding against wild type [1]: > 2 fold
Substance: C2B8 K326E (antibody)

fold increase in binding against wild type [1]: > 2 fold
Substance: C2B8 K326M (antibody)

fold better binding than wild type [1]: > 3 fold
CDC [2]: 2 fold
Substance: C2B8 K326M-E333S (antibody)

fold increase in binding against wild type [1]: 5 fold
fold increase in binding against wild type [5]: > 2 fold
Substance: C2B8 K326W (antibody)

percentage of the wild type [3]: 112%
Substance: C2B8 P329A (antibody)

fold lower binding than wild type [1]: 60 fold
percentage of the wild type [3]: 103%
Substance: C2B8 P331A (antibody)

ratio to native IgG1 [6]: 0.71
ratio to native IgG1 [7]: 0.66
ratio to native IgG1 [8]: 0.68
Substance: E27 IgG1 variant K320(339)R (IG2 172) (antibody)

ratio to native IgG1 [6]: 1.24
ratio to native IgG1 [7]: 0.95
ratio to native IgG1 [8]: 0.86
Substance: E27 IgG1 variant K320(339)R (IG2 235) (antibody)

ratio to native IgG1 [8]: 0.05
Substance: E27 IgG1 variant S267(280)T (antibody)

ratio to native IgG1 [9]: 0.15
Substance: anti-IgE E27 IgG1 Asn297Ala (antibody)

ratio to native IgG1 [10]: 0.08
ratio to native IgG1 [11]: 0.54
Substance: anti-IgE E27 IgG1 Glu233Pro/Leu234Val/Leu235Ala/Gly236deleted (antibody)

percentage of the wild type [12]: 96%
Substance: anti-IgE E27 IgG1 Pro329Ala (antibody)

ratio of binding of the variant to that of native IgG1 (ratio (variant/native IgG1)) [13]: 0.06
Substance: anti-IgE E27 IgG1 variant Asp270Ala (antibody)

ratio of binding, variant/native IgG1 (mean) [14]: 0.11
Substance: anti-IgE E27 IgG1 variant S298(317)V (antibody)

ADCC, NK cells of Phe158/Phe158 donors [15]: > 100%
Substance: anti-p185HER2 IgG1 variant Ser298Ala/Glu333Ala/Lys334Ala (antibody)
